Assays:
[1] = biological target: T1, recombinant soluble trimeric H7 HA of A/Shanghai/02/2013 H7N9 (SH13 H7) (Influenza A virus A/Shanghai/02/2013 …); test: BLI
[2] = biological target: A/Shanghai/02/2013 H7N9 (SH13) hemagglutinin HA1, monomeric (Influenza A virus A/Shanghai/02/2013 …, UniProt R4NN21 1-320, biotin (EZ-Link NHS-PEG4-Biotin, antigen:biotin 1:1) in the BLI only); test: BLI
[3] = biological target: T1, recombinant soluble trimeric H7 HA of …; test: ELISA

B1: recombinant H7-235 IgG1 (rH7-235 IgG1) (antibody, V domains shown)
VH: QVQLVESGGGVVQPGESLRLSCAASGFAFRTYGMHWVRQAPGKGLEWVGVIWYDGSNKYYGDSVKGRFTISRDNSQNTLYLQMNSLRAEDTAVYYCARNGERWRVEDYYYGMDVWGQGTLVTVSS
VL: EIVMTQSPLSLPVTPGEPASISCRSSQSLLHSNAHNYLDWYLQKPGQSPQLLIYLGSNRASGVPDRFSGSGSGTDFTLKISRVEAEDVGIYYCMQALQTPITFGQGTRLEIK
With B1 the Kd [1] was < 0.02 nM, the Kd [2] was < 0.02 nM and the EC50 [3] was 0.03 nM.

B2: recombinant H7-235 fragment antigen-binding region (rH7-235 Fab) (Fab, V domains shown)
VH: B1 VH
VL: B1 VL
B2 showed a Kd [1] of 2.12 nM and an EC50 [3] of 0.16 nM.

— publication PMC12288907 (2025)
